System: peptide library, one residue held at a place counted from the S/T acceptor
Experiment: relative phosphorylation of the sub-library (ratio to the mean residue at this position); higher = residue favoured
Settings: human
How it was run: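 In 384-well plates, purified recombinant kinases (human or orthologue constructs) were incubated for 90 min under kinase-specific conditions with 50 μM biotinylated degenerate peptide sub-libraries and 50 μM ATP spiked with γ-32P-ATP. Each sub-library fixed a single residue at one position around a central Ser/Thr. Relative sub-library phosphorylation, measured by phosphorimaging and densitometry of streptavidin membrane spots, is given as a ratio to the mean residue at that position.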

MAP4K1, construct: Full length, sequence (Q92918 whole entry, looked up): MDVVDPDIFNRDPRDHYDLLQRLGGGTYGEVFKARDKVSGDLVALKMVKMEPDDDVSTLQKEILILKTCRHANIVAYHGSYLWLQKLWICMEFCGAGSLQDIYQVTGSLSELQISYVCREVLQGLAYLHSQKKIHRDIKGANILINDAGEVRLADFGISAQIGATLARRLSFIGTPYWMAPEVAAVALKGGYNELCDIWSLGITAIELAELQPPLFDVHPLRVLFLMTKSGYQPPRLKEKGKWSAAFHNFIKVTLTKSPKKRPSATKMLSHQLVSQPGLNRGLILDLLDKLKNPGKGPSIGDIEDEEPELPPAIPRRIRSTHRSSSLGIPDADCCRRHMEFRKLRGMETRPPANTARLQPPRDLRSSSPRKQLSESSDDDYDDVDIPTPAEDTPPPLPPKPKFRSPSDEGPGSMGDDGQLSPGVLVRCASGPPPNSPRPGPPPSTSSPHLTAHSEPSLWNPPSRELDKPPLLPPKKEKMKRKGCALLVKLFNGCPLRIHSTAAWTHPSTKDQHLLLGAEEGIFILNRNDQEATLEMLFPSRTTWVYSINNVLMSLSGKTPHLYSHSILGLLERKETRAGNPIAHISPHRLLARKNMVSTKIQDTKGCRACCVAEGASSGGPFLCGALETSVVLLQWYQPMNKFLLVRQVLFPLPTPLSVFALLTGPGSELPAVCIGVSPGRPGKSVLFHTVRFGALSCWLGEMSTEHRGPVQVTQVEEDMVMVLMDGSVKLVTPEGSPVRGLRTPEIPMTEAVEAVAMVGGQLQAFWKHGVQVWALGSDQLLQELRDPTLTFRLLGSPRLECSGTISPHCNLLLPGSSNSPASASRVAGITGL

MAP3K9, construct: aa132-413 (from UniProt P80192)
relative phosphorylation
Settings | at +1 | at +2 | at +3 | at +4 | at -1 | at -2 | at -3 | at -4 | at -5
A fixed | 0.832 | 0.66 | 0.89 | 0.949 | 0.791 | 0.914 | 1.07 | 1.13 | 1.12
D fixed | 0.308 | 0.362 | 0.612 | 0.652 | 1.02 | 1.23 | 1.16 | 1.57 | 1.45
E fixed | 0.492 | 0.46 | 0.619 | 0.719 | 0.854 | 1.03 | 1.38 | 1.45 | 1.3
F fixed | 1.61 | 0.594 | 1.44 | 0.823 | 1.19 | 1.33 | 1.14 | 0.824 | 0.978
G fixed | 0.686 | 0.727 | 0.991 | 1.02 | 0.525 | 0.932 | 1.21 | 1.18 | 1.13
H fixed | 1.23 | 1.66 | 1.28 | 0.995 | 1.3 | 1.13 | 1.1 | 0.955 | 0.984
I fixed | 1.3 | 0.627 | 0.865 | 0.842 | 0.899 | 0.715 | 0.785 | 0.734 | 0.887
K fixed | 1.19 | 2.81 | 1.59 | 1.94 | 1.07 | 0.523 | 0.688 | 0.998 | 0.882
L fixed | 0.969 | 0.598 | 1.11 | 0.841 | 1.08 | 0.824 | 0.792 | 0.759 | 0.737
M fixed | 1.28 | 0.522 | 0.995 | 0.952 | 1.25 | 0.931 | 0.863 | 0.929 | 0.827
N fixed | 0.689 | 0.836 | 0.797 | 0.946 | 1.1 | 1.07 | 1.04 | 0.951 | 1.08
P fixed | 0.208 | 0.36 | 0.501 | 1.04 | 0.775 | 1.57 | 1.15 | 0.99 | 0.9
Q fixed | 1.2 | 0.907 | 0.741 | 0.943 | 0.924 | 1.08 | 0.925 | 0.934 | 0.901
R fixed | 1.55 | 3.45 | 1.47 | 1.8 | 1.26 | 0.817 | 0.946 | 1.14 | 1.05
V fixed | 1.49 | 0.602 | 0.796 | 0.767 | 0.873 | 0.701 | 0.798 | 0.83 | 0.908
W fixed | 1.19 | 0.687 | 1.19 | 1.05 | 0.969 | 1.13 | 0.881 | 0.892 | 0.907
Y fixed | 0.772 | 1.13 | 1.12 | 0.72 | 1.13 | 1.07 | 1.08 | 0.745 | 0.958
pThr fixed | 0.825 | 0.703 | 0.677 | 1.01 | 0.976 | 1.23 | 1.83 | 1.55 | 1.57
pTyr fixed | 0.628 | 0.376 | 0.709 | 0.622 | 1.29 | 1.19 | 1.54 | 1.02 | 1.54

MAP3K20, construct: Full length (from UniProt Q9NYL2)
relative phosphorylation
Settings | at +1 | at +2 | at +3 | at +4 | at -1 | at -2 | at -3 | at -4 | at -5
A fixed | 0.455 | 0.721 | 0.832 | 0.953 | 0.78 | 0.903 | 1.01 | 0.913 | 1.12
D fixed | 0.247 | 0.439 | 0.477 | 0.582 | 1.46 | 1.01 | 0.926 | 1.29 | 1
E fixed | 0.359 | 0.359 | 0.543 | 0.629 | 0.797 | 0.946 | 1.13 | 1.14 | 0.884
F fixed | 1.58 | 0.694 | 1.11 | 0.722 | 0.853 | 1.03 | 0.835 | 0.894 | 0.925
G fixed | 0.282 | 0.564 | 0.99 | 1.06 | 1.22 | 1.45 | 1.18 | 1.16 | 1.09
H fixed | 1.07 | 2.45 | 1.13 | 1.14 | 1.79 | 1.61 | 1.2 | 1.13 | 1.1
I fixed | 2.51 | 0.692 | 1.08 | 0.729 | 0.394 | 0.631 | 0.772 | 0.72 | 0.733
K fixed | 0.486 | 1.57 | 1.45 | 2.05 | 1.01 | 0.509 | 0.819 | 1.08 | 1.39
L fixed | 1.3 | 0.646 | 1.07 | 0.672 | 0.679 | 0.858 | 0.952 | 0.736 | 0.812
M fixed | 0.981 | 0.758 | 0.972 | 0.818 | 1.13 | 0.812 | 0.915 | 0.849 | 0.822
N fixed | 0.473 | 0.996 | 0.822 | 0.946 | 1.63 | 1.12 | 1.28 | 1.19 | 1.11
P fixed | 0.261 | 0.41 | 0.771 | 1.16 | 0.632 | 0.693 | 1.23 | 1.07 | 1.03
Q fixed | 0.629 | 0.894 | 0.896 | 1.04 | 1.08 | 0.977 | 0.892 | 0.932 | 0.914
R fixed | 0.557 | 2.15 | 1.42 | 1.72 | 1.12 | 0.662 | 1.01 | 1.11 | 1.14
V fixed | 2.5 | 0.779 | 0.984 | 0.69 | 0.461 | 0.647 | 0.841 | 0.76 | 0.772
W fixed | 1.27 | 1.08 | 1.25 | 1.19 | 0.778 | 2.07 | 1.11 | 1.07 | 1.14
Y fixed | 2.03 | 1.8 | 1.21 | 0.895 | 1.18 | 1.07 | 0.909 | 0.959 | 1.01
pThr fixed | 0.837 | 0.564 | 0.781 | 0.663 | 0.615 | 1.09 | 1.34 | 1.2 | 1.22
pTyr fixed | 0.662 | 0.528 | 0.72 | 0.694 | 0.997 | 0.935 | 1.06 | 0.797 | 1.04

MAP4K1, construct: Full length (from UniProt Q92918)
relative phosphorylation
Settings | at +1 | at +2 | at +3 | at +4 | at -1 | at -2 | at -3 | at -4 | at -5
A fixed | 0.465 | 0.82 | 0.882 | 0.928 | 0.991 | 1.1 | 0.946 | 0.951 | 1.07
D fixed | 0.192 | 0.786 | 0.471 | 0.756 | 0.585 | 0.362 | 0.52 | 0.653 | 0.679
E fixed | 0.199 | 0.706 | 0.454 | 0.629 | 0.441 | 0.302 | 0.487 | 0.699 | 0.613
F fixed | 1.23 | 0.581 | 0.893 | 0.879 | 0.987 | 1.36 | 0.908 | 1.14 | 1.11
G fixed | 0.58 | 0.957 | 0.933 | 1.13 | 1.79 | 1.06 | 1.21 | 1.29 | 1.15
H fixed | 0.575 | 1.13 | 1.04 | 1.08 | 1.37 | 1.36 | 1.3 | 1.08 | 1.07
I fixed | 1.91 | 0.442 | 0.571 | 0.806 | 0.342 | 0.646 | 0.545 | 0.706 | 0.763
K fixed | 0.56 | 2.51 | 1.8 | 1.65 | 1.24 | 1.11 | 1.93 | 1.26 | 1.49
L fixed | 3.52 | 0.604 | 0.724 | 0.863 | 1.17 | 0.667 | 0.694 | 0.798 | 0.746
M fixed | 2.94 | 0.695 | 0.763 | 0.861 | 1.26 | 0.794 | 0.823 | 0.896 | 0.934
N fixed | 0.442 | 0.974 | 0.925 | 0.978 | 1.3 | 0.931 | 0.928 | 0.849 | 0.88
P fixed | 0.396 | 1.17 | 1.13 | 1.02 | 0.534 | 0.62 | 0.766 | 0.955 | 1.09
Q fixed | 0.5 | 0.869 | 0.837 | 0.958 | 0.745 | 0.679 | 0.904 | 0.888 | 0.83
R fixed | 0.573 | 2.9 | 2.98 | 1.62 | 1.62 | 1.6 | 2.01 | 1.39 | 1.34
V fixed | 0.584 | 0.521 | 0.654 | 0.815 | 0.438 | 0.798 | 0.634 | 0.828 | 0.895
W fixed | 1.45 | 0.627 | 0.991 | 1.14 | 0.909 | 1.51 | 1.28 | 1.37 | 1.15
Y fixed | 0.877 | 0.706 | 0.942 | 0.887 | 1.27 | 2.1 | 1.11 | 1.24 | 1.2
pThr fixed | 1.32 | 1.33 | 1.14 | 0.786 | 0.699 | 1.1 | 1.22 | 1.25 | 1.32
pTyr fixed | 0.373 | 0.593 | 0.669 | 0.602 | 0.86 | 0.653 | 0.977 | 0.948 | 1.04

Reference: the supplement of paper PMC9876800
